Experimental data published in US20210063414A1, “METHODS FOR PREVENTING AND/OR TREATING BONE LOSS CONDITIONS BY MODULATING IRISIN” (Dana-Farber Cancer Institute, Inc., priority 2018, published 2021).

How the values were obtained:
[1] = target: T1, MLO-Y4 cell surface proteins (Mus musculus, UniProt P39654); assay: Crosslinking/co-immunoprecipitation/mass spectrometry (TMT quantitative proteomics) to identify irisin receptors; type: binding; conditions: co-precipitated protein Alox15 (LOX15_MOUSE)
T1 construct: endogenous in cells; host or cells: MLO-Y4
T1 sequence (P39654 1-663): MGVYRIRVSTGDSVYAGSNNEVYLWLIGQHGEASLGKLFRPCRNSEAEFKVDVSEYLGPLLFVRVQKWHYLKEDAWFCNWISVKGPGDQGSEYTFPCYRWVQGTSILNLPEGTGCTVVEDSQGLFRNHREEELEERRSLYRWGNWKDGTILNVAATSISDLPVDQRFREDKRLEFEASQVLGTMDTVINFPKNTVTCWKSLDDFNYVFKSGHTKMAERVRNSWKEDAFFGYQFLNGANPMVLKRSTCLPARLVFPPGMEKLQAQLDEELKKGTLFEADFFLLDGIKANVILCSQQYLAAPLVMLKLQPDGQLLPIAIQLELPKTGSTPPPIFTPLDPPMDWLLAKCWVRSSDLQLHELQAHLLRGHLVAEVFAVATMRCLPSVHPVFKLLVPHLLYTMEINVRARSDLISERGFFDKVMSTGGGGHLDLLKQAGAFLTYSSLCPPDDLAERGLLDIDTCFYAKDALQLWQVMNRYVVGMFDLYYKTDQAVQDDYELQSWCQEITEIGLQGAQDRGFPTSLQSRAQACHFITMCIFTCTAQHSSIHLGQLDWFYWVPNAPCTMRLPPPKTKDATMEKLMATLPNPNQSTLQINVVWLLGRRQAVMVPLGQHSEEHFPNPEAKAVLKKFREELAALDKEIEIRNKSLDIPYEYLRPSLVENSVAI
In short: (§1)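 Relative protein abundance came from 6-plex TMT MS3 quantitation on an Orbitrap Fusion Lumos, after in-gel trypsin digestion of Coomassie-stained SDS-PAGE lanes. Input was a Ni-NTA pulldown (250 mM imidazole elution) of lysates from murine MLO-Y4 cells. These cells were treated on ice with His-tagged irisin or adipsin (10 nM, 20 min) in serum-free medium, then crosslinked with 1.5 mM DTSSP for 30 min.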

[2] = target: T2, MLO-Y4 cell surface proteins (Mus musculus, UniProt Q9CY64); assay: as above; type: binding; conditions: co-precipitated protein Blvra (BIEA_MOUSE)
T2 construct: endogenous in cells; host or cells: MLO-Y4
T2 sequence (Q9CY64 3-295): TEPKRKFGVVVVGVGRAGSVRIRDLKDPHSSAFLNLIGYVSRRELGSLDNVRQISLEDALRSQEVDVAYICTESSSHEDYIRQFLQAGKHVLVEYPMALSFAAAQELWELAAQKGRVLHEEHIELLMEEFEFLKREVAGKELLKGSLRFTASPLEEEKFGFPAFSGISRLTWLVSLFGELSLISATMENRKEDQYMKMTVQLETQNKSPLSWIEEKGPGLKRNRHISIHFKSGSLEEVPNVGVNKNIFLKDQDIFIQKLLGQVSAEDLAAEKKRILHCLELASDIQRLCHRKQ
In short: as §1

B1: irisin: secreted cleaved form of FNDC5; recombinant human/mouse irisin with C-terminal his tag produced in HEK293 cells (protein)
chain: DSPSAPVNVTVRHLKANSAVVSWDVLEDEVVIGFAISQQKKDVRMLRFIQEVNTTTRSCALWDLEEDTEYIVHVQAISIQGQSPASEPVLFKTPREAEKMASKNKDEVTMKE
modifications: left off: small tags and cut ends
notes: secreted cleaved form of FNDC5; recombinant human/mouse irisin with C-terminal his tag produced in HEK293 cells
[1]
  TMT signal-to-noise ratio: 9.028
  irisin/adipsin TMT signal-to-noise ratio: 0.064
[2]
  TMT signal-to-noise ratio: 86.0306
  irisin/adipsin TMT signal-to-noise ratio: 0.284
